For 1 protein, Km and kcat results are on record in paper PMC8881100, “Biochemical and Molecular Dynamics Study of a Novel GH 43 α-L-Arabinofuranosidase/β-Xylosidase From Caldicellulosiruptor saccharolyticus DSM8903” (Frontiers in Bioengineering and Biotechnology, 2022).

For orientation: Km means the concentration of substrate that gives half-maximal velocity. The kcat is the maximal rate divided by the concentration of active sites.

Substrate in the series: O=[N+]([O-])c1ccc(O[C@@H]2O[C@@H](CO)[C@H](O)[C@H]2O)cc1
Nature of the series: purified protein. The note with it: citric acid phosphate buffer pH 6, 70°C, 0.5 to 3.5 mM substrate. The format is biochemical, Caldicellulosiruptor saccharolyticus.

B1: CAX43 (GH43 α-L-arabinofuranosidase/β-xylosidase) (Caldicellulosiruptor saccharolyticus DSM 8903) (protein)
chain: MIPTLWDPNVDEERYKNPIIHADYSDPDVIRVGSDYFLVASSFNCVPGLPILHSRDLINWKIVNYAVERLPSPEYDTPQIGKGIWAPAIRYHEEKFYIYFSMPDDGIYVCYTDDPFGKWSDIHLVKAAKGWIDPCPFWDEDGNAYLVNAFAKSRIGFNSKLCVSRLSADGLRVLDEGKIVFDGAKTQPTIEGPKLYKRNGYYYIFAPAGGVKFGWQTVLRSKDIYGPYEEKIVLHQGKTKINGPHQGAWVETEKGEHWFVHFQDRGPYGRVVHLQPMRWEDNWPVIGVDIDGDGIGEPVEEYRKPNTNYKNEYDFYLECSDHFDKPQISLQWQWHANPQDNWYSLEKRKSYLRLYAVGNLTNNNKVKSIFFMPNLLLQKIPAPEFIAIVKLEVNFNKEGSYAGIIMSGSRYSSIGIKRGQKKLSLVQVLGDVKEDVIENTVAKMPIETSQVFLKISVKEGAVCKFSFSFDGKKFTDFGTEFIPQEAIWVGSKIGLFCINTSGKNGVIQSDYADFDYFKIENFRKEDEC
notes: C-terminal His6 tag; pEASY blunt E2, E. coli BL21 (C43); Ni-NTA purified
Consider B1, for which the Km was 1.071 mmol/L and the kcat was 234.674 s⁻¹.
